Data set [1] can be described thus: Chemical resistance: rate of change in antibody binding amount of immobilized support before and after alkali treatment. It is filed as physicochemical. Particulars: peptide-immobilized HiTrap support; human IgG binding amount at 10% leak, before and after 0.05 M aqueous NaOH for 6 hours at 25° C. How it is done: 1 mL of HiTrap NHS-activated HP Columns (coupling columns for ligand immobilization, manufactured by GE Healthcare) (HITRAP is a registered trademark) was reacted with 1 mL of 10 mg/mL cyclic peptide solution, which was prepared by dissolving the cyclic peptide 1 in an immobilization buffer (10% DMSO in 200 mM NaHCO3, 500 mM NaCl, pH 8.3), for 1 hour at 25° C. The reaction product was blocked by an aqueous ethanolamine solution and washed, thereby obtaining a cyclic peptide 1-immobilized support. Hereinafter, the obtained immobilized support will be referred to as “immobilized support A”.
The immobilized support A prepared in (4) described above was connected to a chromatography system AKTA avant 25 (manufactured by GE Healthcare) (AKTAAVANT is a registered trademark), and the antibody binding amount was measured. The columns were equilibrated using an equilibration solution (20 mM phosphoric acid buffer, 150 mM NaCl, pH 7.4), and then 20 mL of a 5 mg/mL human IgG antibody standard buffer solution (20 mM phosphoric acid buffer, 150 mM NaCl, pH 7.4) was injected thereinto at a flow rate of 0.21 mL/min. Thereafter, the columns were washed with 5 mL of a postloading wash solution (20 mM phosphoric acid buffer, 150 mM NaCl, pH 7.4) caused to flow at the same flow rate and then washed with 5 mL of a pre-elution wash solution (20 mM phosphoric acid buffer, 1 M NaCl, pH 7.4) at the same flow rate. Then, 5 mL of an elution solution (100 mM citric acid buffer, pH 3.2) was caused to flow at the same flow rate. Subsequently, 5 mL of a cleaning in place (CIP) solution (0.1 M sodium hydroxide) was caused to flow at the same flow rate, and then 5 mL of a reequilibration solution (20 mM phosphoric acid buffer, 150 mM NaCl, pH 7.4) was caused to flow at the same flow rate. At this time, by using an immunoglobulin G (IgG) elution peak obtained by monitoring absorbance at 280 nm, the amount of antibodies binding to the support until 10% of the antibody stock solution leaked out of the support was measured as the antibody binding amount. Then, the immobilized support A was filled with a 0.05 M aqueous NaOH solution for 6 hours at 25° C. and left to stand, the antibody binding amount of the support was then measured in the same manner, and a rate of change in the binding amount was calculated from the antibody binding amount before and after the alkali treatment.

A short description of data set [2]: Stability in human plasma (residual rate by mass spectrometry). The conditions noted are these: 20 minutes at room temperature, 0-minute sample as 100%.
Protocol: After 20 minutes, 100 μL of methanol (manufactured by Wako Pure Chemical Industries, Ltd.) was added thereto such that the reaction stopped. After being stirred, the solution was subjected to centrifugation, and the supernatant was collected and named 20-minute sample. Meanwhile, 100 μL of methanol was added to 20 μL of the human plasma, 2 μL of the aqueous solution of the cyclic peptide was then added thereto, the solution was stirred and subjected to centrifugation, and the supernatant was collected. The collected supernatant was named 0-minute sample.
By regarding the quantified value obtained from the 0-minute sample as 100%, the quantified value obtained from the 20-minute sample was calculated as a residual rate.
Data set [3] concerns human immunoglobulin G (IgG) antibodies. Nature of the data set: Relative binding activity to human IgG antibodies by surface plasmon resonance on immobilized sensor chip. The conditions noted are these: SPR (Biacore 3000, CM5 chip), 3,000 nM human IgG for 10 minutes at 25° C.; relative to the cyclic peptide of Comparative Example 1 regarded as 1. As for the experimental part:
A commercially available CM5 (carboxymethyl dextran introduction-type, manufactured by GE Healthcare) sensor chip was set in Biacore 3000 (Biacore is a registered trademark) as a surface plasmon resonance device manufactured by GE Healthcare, a 4-(2-hydroxyethyl)-1-piperazineethanesulfonic acid (HEPES) buffer solution (20 mM HEPES-HCl, 150 mM NaCl, pH 7.4) for surface plasmon resonance (SPR) was stabilized at a flow rate of 10 μL/min, and 70 μL of an aqueous mixed solution of 0.2 M 1-(3-Dimethylaminopropyl)-3-ethylcarbodiimide (EDC) and […] of N-Hydroxysuccinimide (NHS) were injected thereinto. Thereafter, 100 μL of a sample solution of the cyclic peptide 1, which was diluted with a HEPES buffer solution at 0.2 g/L and treated with a polytetrafluoroethylene (PTFE) filter (manufactured by Advantec MFS, Inc.) having a diameter of 0.20 μm, was supplied to the sensor chip. Then, a blocking treatment was then performed on the sample solution by using an aqueous ethanolamine solution, and the sensor chip was washed with an aqueous sodium hydroxide solution, thereby performing immobilization. Likewise, 70 μL of an aqueous mixed solution of 0.2 M EDC and 0.04 M NHS was added to the same sensor chip without immobilizing the sample in another flow channel of the sensor chip, and then the blocking treatment and the washing treatment were performed. Hereinafter, the obtained immobilized sensor chip will be referred to as “immobilized sensor chip A”.
At 25° C., 3,000 nM of human immunoglobulin G (IgG) antibodies were added for 10 minutes to the immobilized sensor chip A prepared in (2) described above. Then, the antibody binding amount in the flow channel in which the cyclic peptide was immobilized immediately after the addition and in the flow channel in which the cyclic peptide was not immobilized was measured. From the difference in the antibody binding amount between the flow channel in which the cyclic peptide was immobilized and the flow channel in which the cyclic peptide was not immobilized and the amount of the immobilized cyclic peptide, the activity of the cyclic peptide was calculated. Furthermore, by regarding the activity of a cyclic peptide 5 in Comparative Example 1 as 1, the relative binding activity with respect to the human IgG antibodies was calculated.
A general note: Surface plasmon resonance follows binding to a sensor surface in real time, without labels.

Positions of bridges follow the written chain, without caps; N, C: chain ends. Non-standard residues stand in square brackets, D forms with d. No end group written: not given here. Lys(N3) = [N-]=[N+]=NCCCC[C@H](N)C(=O)O; Bpg = L-bishomopropargylglycine

In the case of “Asp-[Lys(N3)]-Ala-Tyr-His-Arg-Gly-Glu-Leu-Val-Trp-[Bpg]-Thr-Lys-Lys (D[Lys(N3)]AYHRGELVW[Bpg]TKK; triazole 2-12) [Cyclic peptide 1, [Lys(N3)] and [Bpg] cross-linked through a triazole bond]”, the “Chemical resistance (rate of change in the binding amount)” value in data set [1] was “B (The rate of change in the binding amount was higher than 80% and equal to or lower than 90%)”. The “Stability in plasma (residual rate)” value in data set [2] was “A (The rate of change in the binding amount was higher than 90%)”. In addition, in data set [3], the Relative binding activity entry is given as “A (The relative binding activity was higher than 800% of the binding activity of the cyclic peptide 5)”.
For “Asp-[Lys(N3)]-Ala-Tyr-His-Leu-Gly-Glu-Leu-Val-Trp-[Bpg]-Thr-Lys-Lys (D[Lys(N3)]AYHLGELVW[Bpg]TKK; triazole 2-12) [Cyclic peptide 2, [Lys(N3)] and [Bpg] cross-linked through a triazole bond]”, in data set [1], the “Chemical resistance (rate of change in the binding amount)” value is listed as “A (The rate of change in the binding amount was higher than 90%)”. Moreover, the “Stability in plasma (residual rate)” value in data set [2] is given as “A (The rate of change in the binding amount was higher than 90%)”. Besides, the Relative binding activity entry in data set [3] is “A (The relative binding activity was higher than 800% of the binding activity of the cyclic peptide 5)”.

For the origin of these results see patent publication US11066446B2, “Cyclic peptide, affinity chromatography support, labeled antibody, antibody drug conjugate, and pharmaceutical preparation” (FUJIFILM Corporation, priority 2016, dated 2021).
